Test results from publication PMC6392469 (Cellular signalling, 2018).
Non-standard residues stand in square brackets, D forms with d. No end group written: not given here. fluorescein = fluorescein-6-aminohexanoyl label; pY = N[C@@H](Cc1ccc(OP(=O)(O)O)cc1)C(=O)O; Ahx = NCCCCCC(=O)O

Tests used:
[1] = biological target: T1, C1-Ten SH2 domain (C1-Ten/Tensin2) (Homo sapiens, UniProt Q63HR2); assay: equilibrium SPR, L1 chip with lipid vesicles; format: binding
T1 sequence (Q63HR2 1120-1253): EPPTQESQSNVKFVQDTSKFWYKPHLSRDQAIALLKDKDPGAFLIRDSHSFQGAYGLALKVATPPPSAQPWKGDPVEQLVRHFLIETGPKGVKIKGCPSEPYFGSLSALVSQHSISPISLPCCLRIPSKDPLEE

[2] = biological target: T2, C1-Ten SH2 domain (C1-Ten/Tensin2) (Homo sapiens, UniProt Q63HR2, K1142Q/K1155Q/K1157Q); assay: equilibrium SPR, L1 chip with lipid vesicles; format: binding
T2 sequence (Q63HR2 1120-1253 K1142Q/K1155Q/K1157Q): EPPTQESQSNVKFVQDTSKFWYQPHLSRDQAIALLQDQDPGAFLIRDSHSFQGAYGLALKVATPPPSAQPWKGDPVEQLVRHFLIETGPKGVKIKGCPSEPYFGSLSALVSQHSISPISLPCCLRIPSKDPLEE

[3] = biological target: T3, C1-Ten/Tensin2 SH2 domain K1142Q/K1155Q/K1157Q (UniProt Q63HR2 1120-1253, K1142Q | K1155Q | K1157Q); assay: fluorescence polarisation
T3 sequence (looked up): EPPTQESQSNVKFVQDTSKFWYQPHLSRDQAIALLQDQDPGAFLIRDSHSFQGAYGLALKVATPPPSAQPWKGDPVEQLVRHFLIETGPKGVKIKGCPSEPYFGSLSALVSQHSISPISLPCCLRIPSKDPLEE

[4] = biological target: T4, C1-Ten/Tensin2 SH2 domain, wild type (UniProt Q63HR2 1120-1253); assay: fluorescence polarisation
T4 sequence (looked up): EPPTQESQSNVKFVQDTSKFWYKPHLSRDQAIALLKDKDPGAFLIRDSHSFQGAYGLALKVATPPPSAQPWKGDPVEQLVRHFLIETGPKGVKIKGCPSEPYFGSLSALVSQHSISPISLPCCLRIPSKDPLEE

[5] = biological target: T5, C1-Ten/Tensin2 SH2 domain R1165A (UniProt Q63HR2 1120-1253, R1165A); assay: fluorescence polarisation
T5 sequence (looked up): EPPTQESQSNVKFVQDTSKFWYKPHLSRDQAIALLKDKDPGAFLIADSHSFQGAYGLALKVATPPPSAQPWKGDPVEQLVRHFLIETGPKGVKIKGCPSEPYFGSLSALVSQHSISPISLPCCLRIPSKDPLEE

**Q.** CCCCCCCCCCCCCCCC(=O)OC[C@H](COP(=O)(O)O[C@H]1[C@H](O)[C@@H](OP(=O)(O)O)[C@H](OP(=O)(O)O)[C@@H](OP(=O)(O)O)[C@H]1O)OC(=O)CCCCCCCCCCCCCCC [PtdIns(3,4,5)P3] was tested. Which Kd [1] did it give?
**A.** Its Kd is 260 ± 40 nM.

**Q.** What about the Kd [2] of the same molecule?
**A.** The Kd was 1260 ± 128 nM.

**Q.** What does the source list for {fluorescein-Ahx}-NE[pY]DNV [F-Ahx-NEpYDNV, fluorescein-6-aminohexanoyl-labeled pY-containing peptide]?
**A.** Kd [3]: 3600 ± 1400 nM; Kd [4]: 2500 ± 1300 nM; Kd [5]: 90900 ± 11400 nM
